{"source": "patent US20200147120A1", "about": "(NATIONAL UNIVERSITY CORPORATION CHIBA UNIVERSITY, published 2020)", "key": {"BRG1": {"target": "BRG1 (human, UniProt P51532 1-1647)", "sequence (P51532 whole entry, the tested form may be a part)": "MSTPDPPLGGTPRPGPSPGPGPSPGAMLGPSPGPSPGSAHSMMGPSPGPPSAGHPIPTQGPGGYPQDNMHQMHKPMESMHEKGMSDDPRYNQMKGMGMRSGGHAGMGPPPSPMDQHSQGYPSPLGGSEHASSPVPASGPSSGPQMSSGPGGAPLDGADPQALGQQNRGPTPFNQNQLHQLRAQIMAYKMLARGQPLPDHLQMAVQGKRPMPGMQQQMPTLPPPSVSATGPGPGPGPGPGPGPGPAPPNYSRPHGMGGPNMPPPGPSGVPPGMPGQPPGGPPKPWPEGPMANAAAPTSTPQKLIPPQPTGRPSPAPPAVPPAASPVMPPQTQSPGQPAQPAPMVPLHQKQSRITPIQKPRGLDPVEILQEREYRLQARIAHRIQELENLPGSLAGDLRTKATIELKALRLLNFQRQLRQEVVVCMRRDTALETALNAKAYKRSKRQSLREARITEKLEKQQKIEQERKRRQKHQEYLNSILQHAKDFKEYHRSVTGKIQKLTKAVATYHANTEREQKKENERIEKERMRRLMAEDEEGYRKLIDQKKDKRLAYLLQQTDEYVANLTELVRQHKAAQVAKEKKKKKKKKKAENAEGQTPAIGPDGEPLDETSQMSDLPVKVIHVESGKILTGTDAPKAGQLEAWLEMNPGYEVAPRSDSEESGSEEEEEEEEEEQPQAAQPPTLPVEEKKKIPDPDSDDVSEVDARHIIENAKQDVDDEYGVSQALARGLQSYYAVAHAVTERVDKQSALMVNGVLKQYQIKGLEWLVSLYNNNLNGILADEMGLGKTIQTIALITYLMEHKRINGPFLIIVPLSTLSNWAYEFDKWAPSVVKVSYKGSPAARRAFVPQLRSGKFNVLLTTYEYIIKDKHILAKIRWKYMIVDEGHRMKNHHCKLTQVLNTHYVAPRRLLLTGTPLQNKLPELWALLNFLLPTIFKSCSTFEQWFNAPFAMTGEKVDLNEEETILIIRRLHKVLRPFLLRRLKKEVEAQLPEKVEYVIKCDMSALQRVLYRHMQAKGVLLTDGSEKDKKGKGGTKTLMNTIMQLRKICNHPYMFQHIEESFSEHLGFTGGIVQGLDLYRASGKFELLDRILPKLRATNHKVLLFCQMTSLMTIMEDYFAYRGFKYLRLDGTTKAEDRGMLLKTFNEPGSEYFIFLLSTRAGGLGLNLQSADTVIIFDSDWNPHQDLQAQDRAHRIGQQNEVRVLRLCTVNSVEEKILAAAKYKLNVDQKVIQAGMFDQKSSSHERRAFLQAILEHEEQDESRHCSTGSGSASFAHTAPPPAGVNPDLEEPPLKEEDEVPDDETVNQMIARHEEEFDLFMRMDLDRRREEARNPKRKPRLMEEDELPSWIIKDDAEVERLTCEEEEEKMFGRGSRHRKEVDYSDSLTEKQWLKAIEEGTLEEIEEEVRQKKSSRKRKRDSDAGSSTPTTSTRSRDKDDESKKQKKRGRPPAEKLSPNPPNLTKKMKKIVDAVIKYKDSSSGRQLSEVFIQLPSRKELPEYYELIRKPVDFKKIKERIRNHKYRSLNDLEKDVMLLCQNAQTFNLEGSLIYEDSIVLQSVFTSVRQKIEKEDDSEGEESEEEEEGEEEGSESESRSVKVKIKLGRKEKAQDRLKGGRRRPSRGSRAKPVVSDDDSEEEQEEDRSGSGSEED", "experiment": "binding test of DPF2 truncation mutants; format not described"}, "Brm": {"target": "T1, Brm (human, UniProt P51531 1-1590, limits assumed)", "T1 construct": "also called hBRM", "T1 sequence (P51531 whole entry, the tested form may be a part)": "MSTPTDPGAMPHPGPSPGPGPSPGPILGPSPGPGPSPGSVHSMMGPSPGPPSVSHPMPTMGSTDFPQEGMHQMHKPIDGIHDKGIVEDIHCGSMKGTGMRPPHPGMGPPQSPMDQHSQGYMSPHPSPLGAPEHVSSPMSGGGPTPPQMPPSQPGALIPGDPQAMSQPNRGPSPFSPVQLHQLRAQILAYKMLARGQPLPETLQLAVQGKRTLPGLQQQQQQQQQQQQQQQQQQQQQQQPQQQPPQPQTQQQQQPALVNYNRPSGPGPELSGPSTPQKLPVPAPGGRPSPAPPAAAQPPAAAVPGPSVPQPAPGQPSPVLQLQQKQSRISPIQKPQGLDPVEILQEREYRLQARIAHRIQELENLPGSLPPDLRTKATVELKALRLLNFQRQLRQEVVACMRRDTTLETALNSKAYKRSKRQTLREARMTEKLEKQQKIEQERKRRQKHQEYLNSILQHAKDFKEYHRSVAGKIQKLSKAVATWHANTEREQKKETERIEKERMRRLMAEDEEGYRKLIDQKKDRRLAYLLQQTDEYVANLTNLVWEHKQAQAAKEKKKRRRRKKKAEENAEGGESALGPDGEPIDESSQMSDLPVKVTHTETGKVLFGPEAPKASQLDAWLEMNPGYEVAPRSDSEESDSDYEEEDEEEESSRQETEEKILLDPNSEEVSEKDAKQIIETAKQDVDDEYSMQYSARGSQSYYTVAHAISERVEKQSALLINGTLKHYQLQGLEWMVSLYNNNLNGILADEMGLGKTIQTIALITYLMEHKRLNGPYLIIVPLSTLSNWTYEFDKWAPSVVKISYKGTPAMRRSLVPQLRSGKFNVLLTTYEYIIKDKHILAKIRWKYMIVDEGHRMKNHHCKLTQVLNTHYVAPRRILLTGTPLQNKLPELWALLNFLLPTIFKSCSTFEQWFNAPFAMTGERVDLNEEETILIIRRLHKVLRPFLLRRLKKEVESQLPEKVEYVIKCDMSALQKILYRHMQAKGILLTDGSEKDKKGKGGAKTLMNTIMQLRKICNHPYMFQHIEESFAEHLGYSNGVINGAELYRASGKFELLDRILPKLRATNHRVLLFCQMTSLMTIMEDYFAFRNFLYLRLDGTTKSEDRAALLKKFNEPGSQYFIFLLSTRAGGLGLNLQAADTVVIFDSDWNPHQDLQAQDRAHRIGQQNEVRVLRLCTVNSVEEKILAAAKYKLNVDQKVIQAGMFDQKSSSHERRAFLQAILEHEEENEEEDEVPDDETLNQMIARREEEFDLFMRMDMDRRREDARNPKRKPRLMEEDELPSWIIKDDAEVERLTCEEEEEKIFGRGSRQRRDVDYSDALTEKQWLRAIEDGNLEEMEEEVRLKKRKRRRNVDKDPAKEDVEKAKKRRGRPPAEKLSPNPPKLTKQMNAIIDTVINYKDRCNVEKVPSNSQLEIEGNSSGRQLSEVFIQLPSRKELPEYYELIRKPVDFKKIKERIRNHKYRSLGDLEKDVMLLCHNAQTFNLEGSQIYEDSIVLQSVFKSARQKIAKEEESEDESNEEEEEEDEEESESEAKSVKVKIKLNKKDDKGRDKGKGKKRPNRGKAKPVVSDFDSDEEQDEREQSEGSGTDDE", "experiment": "binding test of DPF2 truncation mutants; format not described"}}, "data": [{"binder": "DPF2-CT1 (CT1 peptide of DPF2, amino acid residues 1 to 84) (One of a series of truncation mutants of DPF2) peptide: MAAVVENVVKLLGEQYYKDAMEQCHNYNARLCAERSVRLPFLDSQTGVAQSNCYIWMEKRHRGPGLASGQLYSYPARRWRKKRR", "values": [{"measurement": "binding result", "setting": "BRG1", "value": "binds"}, {"measurement": "binding result", "setting": "Brm", "value": "binds"}]}]}
